The Immune Epitope Database (IEDB)

The sequences below were run against HLA-A*02:01 (assay: IEDB peptide-MHC binding, purified MHC/competitive/radioactivity; ≥ and ≤ were set here for values at or beyond the usual limits of such assays). Settings: source organism: Homo sapiens.

| Sequence | IC50 [nM] |
| --- | --- |
| ALCRWGLLLA | 139 |
| GIMIGVLVGV | 36.8 |
| HLFIYATCLGL | 54.3 |
| KIWEELSML | 167 |
| KMVELVHFL | 9.8 |
| KVAELVHFLL | 55.6 |
| LLGICLTSTV | 102 |
